{"source": "the supplement of paper PMC9112550", "about": "“Optimization of the antimicrobial peptide Bac7 by deep mutational scanning” (BMC Biology, 2022);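 note: peptides expressed intracellularly from a pBAD plasmid library in pooled LB shake-flask culture, induced with 0.3% L-arabinose, DNA abundance read by NGS, three biological replicates, DESeq2 with apeglm shrinkage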"}
{"tested_on": "Escherichia coli TOP10", "assay": "shrunken log2 fold change of peptide-encoding DNA abundance (4.5 h post-induction vs induction); higher = less antimicrobial activity (less host growth inhibition)", "conditions": "time post-induction: 4.5 h; library: site-saturation at positions 5, 18, 19, 20"}
{"sequence": "RRIRTRPPRLPRPRPRPFCVPRP", "shrunken log2 fold change": -0.229}
{"sequence": "RRIRKRPPRLPRPRPRPAHGPRP", "shrunken log2 fold change": 0.502}
{"sequence": "RRIRMRPPRLPRPRPRPYTCPRP", "shrunken log2 fold change": "8.02e-05"}
{"sequence": "RRIRIRPPRLPRPRPRPQDFPRP", "shrunken log2 fold change": -0.1}
{"sequence": "RRIRERPPRLPRPRPRPYYGPRP", "shrunken log2 fold change": -0.127}
{"sequence": "RRIRKRPPRLPRPRPRPTLVPRP", "shrunken log2 fold change": 0.528}
{"sequence": "RRIRQRPPRLPRPRPRPWGGPRP", "shrunken log2 fold change": 0.102}
{"sequence": "RRIRQRPPRLPRPRPRPFAHPRP", "shrunken log2 fold change": -0.0959}
{"sequence": "RRIRMRPPRLPRPRPRPTSFPRP", "shrunken log2 fold change": 0.347}
{"sequence": "RRIRLRPPRLPRPRPRPSLEPRP", "shrunken log2 fold change": -0.209}
{"sequence": "RRIRLRPPRLPRPRPRPPHSPRP", "shrunken log2 fold change": 0.0872}
{"sequence": "RRIRIRPPRLPRPRPRPTWLPRP", "shrunken log2 fold change": -0.124}
{"sequence": "RRIRLRPPRLPRPRPRPFDGPRP", "shrunken log2 fold change": -0.00197}
{"sequence": "RRIRGRPPRLPRPRPRPTRRPRP", "shrunken log2 fold change": 0.663}
{"sequence": "RRIRMRPPRLPRPRPRPNGSPRP", "shrunken log2 fold change": -0.000925}
{"sequence": "RRIRWRPPRLPRPRPRPSPAPRP", "shrunken log2 fold change": 0.348}
{"sequence": "RRIRCRPPRLPRPRPRPDMFPRP", "shrunken log2 fold change": -0.148}
{"sequence": "RRIRIRPPRLPRPRPRPKHVPRP", "shrunken log2 fold change": -0.406}
{"sequence": "RRIRARPPRLPRPRPRPHECPRP", "shrunken log2 fold change": 0.423}
{"sequence": "RRIRWRPPRLPRPRPRPWNEPRP", "shrunken log2 fold change": 0.0237}
{"sequence": "RRIRYRPPRLPRPRPRPLQFPRP", "shrunken log2 fold change": -0.537}
{"sequence": "RRIRQRPPRLPRPRPRPCYYPRP", "shrunken log2 fold change": -0.265}
{"sequence": "RRIRFRPPRLPRPRPRPLVEPRP", "shrunken log2 fold change": -0.0559}
{"sequence": "RRIRYRPPRLPRPRPRPRWNPRP", "shrunken log2 fold change": -0.102}
{"sequence": "RRIRQRPPRLPRPRPRPFKQPRP", "shrunken log2 fold change": -0.24}
{"sequence": "RRIRIRPPRLPRPRPRPFNRPRP", "shrunken log2 fold change": 0.0284}
{"sequence": "RRIRGRPPRLPRPRPRPHCQPRP", "shrunken log2 fold change": -0.058}
{"sequence": "RRIRARPPRLPRPRPRPREFPRP", "shrunken log2 fold change": 0.441}
{"sequence": "RRIRGRPPRLPRPRPRPIARPRP", "shrunken log2 fold change": 0.792}
{"sequence": "RRIRFRPPRLPRPRPRPVCYPRP", "shrunken log2 fold change": -0.495}
{"sequence": "RRIRCRPPRLPRPRPRPEYVPRP", "shrunken log2 fold change": -0.244}
{"sequence": "RRIRPRPPRLPRPRPRPKGTPRP", "shrunken log2 fold change": 0.0309}
{"sequence": "RRIRKRPPRLPRPRPRPPIDPRP", "shrunken log2 fold change": 0.185}
{"sequence": "RRIRVRPPRLPRPRPRPNLMPRP", "shrunken log2 fold change": -0.153}
{"sequence": "RRIRMRPPRLPRPRPRPGCMPRP", "shrunken log2 fold change": 0.968}
{"sequence": "RRIRIRPPRLPRPRPRPTGRPRP", "shrunken log2 fold change": -0.0536}
{"sequence": "RRIRIRPPRLPRPRPRPNKRPRP", "shrunken log2 fold change": -0.368}
{"sequence": "RRIRRRPPRLPRPRPRPDMQPRP", "shrunken log2 fold change": 0.272}
{"sequence": "RRIRARPPRLPRPRPRPCAAPRP", "shrunken log2 fold change": 0.893}
{"sequence": "RRIRLRPPRLPRPRPRPEEGPRP", "shrunken log2 fold change": -0.115}
{"sequence": "RRIRFRPPRLPRPRPRPKQFPRP", "shrunken log2 fold change": 0.058}
{"sequence": "RRIRWRPPRLPRPRPRPDDRPRP", "shrunken log2 fold change": 0.171}
{"sequence": "RRIRGRPPRLPRPRPRPEISPRP", "shrunken log2 fold change": 1.5}
{"sequence": "RRIRMRPPRLPRPRPRPIRPPRP", "shrunken log2 fold change": -0.127}
{"sequence": "RRIRQRPPRLPRPRPRPWMKPRP", "shrunken log2 fold change": 0.0212}
{"sequence": "RRIRFRPPRLPRPRPRPERHPRP", "shrunken log2 fold change": -0.00647}
{"sequence": "RRIRGRPPRLPRPRPRPRKQPRP", "shrunken log2 fold change": 0.875}
{"sequence": "RRIRTRPPRLPRPRPRPEYWPRP", "shrunken log2 fold change": -0.00483}
{"sequence": "RRIRPRPPRLPRPRPRPAGMPRP", "shrunken log2 fold change": -0.00962}
{"sequence": "RRIRKRPPRLPRPRPRPCLDPRP", "shrunken log2 fold change": -0.173}
{"sequence": "RRIRCRPPRLPRPRPRPTIQPRP", "shrunken log2 fold change": -0.508}
{"sequence": "RRIRWRPPRLPRPRPRPFWCPRP", "shrunken log2 fold change": 0.193}
{"sequence": "RRIRWRPPRLPRPRPRPKPRPRP", "shrunken log2 fold change": 0.236}
{"sequence": "RRIRQRPPRLPRPRPRPYFEPRP", "shrunken log2 fold change": -0.524}
{"sequence": "RRIRIRPPRLPRPRPRPSWGPRP", "shrunken log2 fold change": -0.0874}
{"sequence": "RRIRIRPPRLPRPRPRPQDHPRP", "shrunken log2 fold change": -0.466}
{"sequence": "RRIRTRPPRLPRPRPRPSVHPRP", "shrunken log2 fold change": -0.237}
{"sequence": "RRIRHRPPRLPRPRPRPLGVPRP", "shrunken log2 fold change": -0.109}
{"sequence": "RRIRERPPRLPRPRPRPREGPRP", "shrunken log2 fold change": 0.46}
{"sequence": "RRIRARPPRLPRPRPRPMWWPRP", "shrunken log2 fold change": 0.166}
